Experimental data: paper PMC6994259 (Nature, 2020)

T1: Spt7 (S. cerevisiae, UniProt P35177 1-1332)
T1 sequence: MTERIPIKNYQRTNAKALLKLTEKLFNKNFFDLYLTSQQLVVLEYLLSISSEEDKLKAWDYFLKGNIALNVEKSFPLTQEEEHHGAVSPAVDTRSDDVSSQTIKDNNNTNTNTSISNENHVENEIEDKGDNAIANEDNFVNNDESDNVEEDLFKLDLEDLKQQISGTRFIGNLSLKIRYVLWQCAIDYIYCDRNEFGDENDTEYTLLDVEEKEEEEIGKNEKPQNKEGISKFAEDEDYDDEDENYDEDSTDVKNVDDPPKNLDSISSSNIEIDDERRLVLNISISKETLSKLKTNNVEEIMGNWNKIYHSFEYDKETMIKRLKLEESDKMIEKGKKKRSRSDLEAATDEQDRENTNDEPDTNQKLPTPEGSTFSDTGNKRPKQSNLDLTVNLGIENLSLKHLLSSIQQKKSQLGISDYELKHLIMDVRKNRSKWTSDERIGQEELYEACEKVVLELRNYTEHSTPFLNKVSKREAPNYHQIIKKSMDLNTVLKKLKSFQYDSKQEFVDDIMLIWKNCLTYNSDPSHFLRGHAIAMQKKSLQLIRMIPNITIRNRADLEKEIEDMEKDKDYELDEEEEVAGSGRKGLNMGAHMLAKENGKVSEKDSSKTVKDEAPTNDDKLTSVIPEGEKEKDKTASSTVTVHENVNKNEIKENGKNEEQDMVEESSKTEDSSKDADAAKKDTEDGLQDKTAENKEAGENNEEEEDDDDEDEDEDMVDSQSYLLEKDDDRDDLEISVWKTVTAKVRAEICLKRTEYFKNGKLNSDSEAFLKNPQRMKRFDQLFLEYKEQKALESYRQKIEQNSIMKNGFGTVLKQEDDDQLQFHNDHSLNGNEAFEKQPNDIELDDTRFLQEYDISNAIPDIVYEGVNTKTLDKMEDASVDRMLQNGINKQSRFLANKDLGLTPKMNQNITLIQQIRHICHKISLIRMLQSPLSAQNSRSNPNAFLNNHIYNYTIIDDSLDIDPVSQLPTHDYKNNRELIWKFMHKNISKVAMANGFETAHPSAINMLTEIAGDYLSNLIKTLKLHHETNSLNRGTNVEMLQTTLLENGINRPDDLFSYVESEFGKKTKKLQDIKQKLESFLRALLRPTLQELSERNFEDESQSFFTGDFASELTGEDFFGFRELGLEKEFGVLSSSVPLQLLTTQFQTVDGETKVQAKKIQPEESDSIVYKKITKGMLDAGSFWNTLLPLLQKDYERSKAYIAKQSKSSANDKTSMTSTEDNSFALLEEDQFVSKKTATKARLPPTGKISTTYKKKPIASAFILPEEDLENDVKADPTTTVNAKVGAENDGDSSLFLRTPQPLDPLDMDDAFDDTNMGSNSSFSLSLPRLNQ

T2: Sgf73 (S. cerevisiae, UniProt P53165 1-657)
T2 sequence: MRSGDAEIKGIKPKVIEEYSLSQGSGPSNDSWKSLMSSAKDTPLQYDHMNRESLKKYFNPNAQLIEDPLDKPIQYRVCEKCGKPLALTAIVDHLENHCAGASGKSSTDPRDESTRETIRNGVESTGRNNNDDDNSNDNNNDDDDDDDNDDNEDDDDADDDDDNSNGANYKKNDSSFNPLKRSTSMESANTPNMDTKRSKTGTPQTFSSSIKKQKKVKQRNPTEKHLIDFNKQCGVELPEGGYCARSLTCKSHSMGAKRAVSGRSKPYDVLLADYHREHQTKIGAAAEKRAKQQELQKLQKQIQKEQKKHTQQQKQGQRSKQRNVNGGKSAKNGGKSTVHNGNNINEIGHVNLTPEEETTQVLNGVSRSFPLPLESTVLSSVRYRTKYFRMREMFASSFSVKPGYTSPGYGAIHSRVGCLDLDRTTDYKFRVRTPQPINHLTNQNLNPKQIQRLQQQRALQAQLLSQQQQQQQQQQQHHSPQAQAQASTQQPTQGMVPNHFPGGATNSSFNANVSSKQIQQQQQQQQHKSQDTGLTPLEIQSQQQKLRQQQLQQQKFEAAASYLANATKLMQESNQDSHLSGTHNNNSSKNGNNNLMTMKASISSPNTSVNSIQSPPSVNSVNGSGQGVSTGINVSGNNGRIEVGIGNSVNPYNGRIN

B1: Taf6 (natural protein)
chain: MSTQQQSYTIWSPQDTVKDVAESLGLENINDDVLKALAMDVEYRILEIIEQAVKFKRHSKRDVLTTDDVSKALRVLNVEPLYGYYDGSEVNKAVSFSKVNTSGGQSVYYLDEEEVDFDRLINEPLPQVPRLPTFTTHWLAVEGVQPAIIQNPNLNDIRVSQPPFIRGAIVTALNDNSLQTPVTSTTASASVTDTGASQHLSNVKPGQNTEVKPLVKHVLSKELQIYFNKVISTLTAKSQADEAAQHMKQAALTSLRTDSGLHQLVPYFIQFIAEQITQNLSDLQLLTTILEMIYSLLSNTSIFLDPYIHSLMPSILTLLLAKKLGGSPKDDSPQEIHEFLERTNALRDFAASLLDYVLKKFPQAYKSLKPRVTRTLLKTFLDINRVFGTYYGCLKGVSVLEGESIRFFLGNLNNWARLVFNESGITLDNIEEHLNDDSNPTRTKFTKEETQILVDTVISALLVLKKDLPDLYEGKGEKVTDEDKEKLLERCGVTIGFHILKRDDAKELISAIFFGE
B2: Taf5 (natural protein)
chain: MSQKQSTNQNQNGTHQPQPVKNQRTNNAAGANSGQQPQQQSQGQSQQQGRSNGPFSASDLNRIVLEYLNKKGYHRTEAMLRAESGRTLTPQNKQSPANTKTGKFPEQSSIPPNPGKTAKPISNPTNLSSKRDAEGGIVSSGRLEGLNAPENYIRAYSMLKNWVDSSLEIYKPELSYIMYPIFIYLFLNLVAKNPVYARRFFDRFSPDFKDFHGSEINRLFSVNSIDHIKENEVASAFQSHKYRITMSKTTLNLLLYFLNENESIGGSLIISVINQHLDPNIVESVTAREKLADGIKVLSDSENGNGKQNLEMNSVPVKLGPFPKDEEFVKEIETELKIKDDQEKQLNQQTAGDNYSGANNRTLLQEYKAMNNEKFKDNTGDDDKDKIKDKIAKDEEKKESELKVDGEKKDSNLSSPARDILPLPPKTALDLKLEIQKVKESRDAIKLDNLQLALPSVCMYTFQNTNKDMSCLDFSDDCRIAAAGFQDSYIKIWSLDGSSLNNPNIALNNNDKDEDPTCKTLVGHSGTVYSTSFSPDNKYLLSGSEDKTVRLWSMDTHTALVSYKGHNHPVWDVSFSPLGHYFATASHDQTARLWSCDHIYPLRIFAGHLNDVDCVSFHPNGCYVFTGSSDKTCRMWDVSTGDSVRLFLGHTAPVISIAVCPDGRWLSTGSEDGIINVWDIGTGKRLKQMRGHGKNAIYSLSYSKEGNVLISGGADHTVRVWDLKKATTEPSAEPDEPFIGYLGDVTASINQDIKEYGRRRTVIPTSDLVASFYTKKTPVFKVKFSRSNLALAGGAFRP

Tests used:
Spt7 = target: T1, Spt7; assay: cryo-EM structure
Sgf73 [1] = target: T2, Sgf73; assay: cryo-EM structure
Taf5 [2] = target: B2; assay: cryo-EM structure
Tra1 = Tra1 (S. cerevisiae, UniProt P38811 1-3744); assay: affinity purification with mass spectrometry
Sequence of Tra1 (P38811 whole entry): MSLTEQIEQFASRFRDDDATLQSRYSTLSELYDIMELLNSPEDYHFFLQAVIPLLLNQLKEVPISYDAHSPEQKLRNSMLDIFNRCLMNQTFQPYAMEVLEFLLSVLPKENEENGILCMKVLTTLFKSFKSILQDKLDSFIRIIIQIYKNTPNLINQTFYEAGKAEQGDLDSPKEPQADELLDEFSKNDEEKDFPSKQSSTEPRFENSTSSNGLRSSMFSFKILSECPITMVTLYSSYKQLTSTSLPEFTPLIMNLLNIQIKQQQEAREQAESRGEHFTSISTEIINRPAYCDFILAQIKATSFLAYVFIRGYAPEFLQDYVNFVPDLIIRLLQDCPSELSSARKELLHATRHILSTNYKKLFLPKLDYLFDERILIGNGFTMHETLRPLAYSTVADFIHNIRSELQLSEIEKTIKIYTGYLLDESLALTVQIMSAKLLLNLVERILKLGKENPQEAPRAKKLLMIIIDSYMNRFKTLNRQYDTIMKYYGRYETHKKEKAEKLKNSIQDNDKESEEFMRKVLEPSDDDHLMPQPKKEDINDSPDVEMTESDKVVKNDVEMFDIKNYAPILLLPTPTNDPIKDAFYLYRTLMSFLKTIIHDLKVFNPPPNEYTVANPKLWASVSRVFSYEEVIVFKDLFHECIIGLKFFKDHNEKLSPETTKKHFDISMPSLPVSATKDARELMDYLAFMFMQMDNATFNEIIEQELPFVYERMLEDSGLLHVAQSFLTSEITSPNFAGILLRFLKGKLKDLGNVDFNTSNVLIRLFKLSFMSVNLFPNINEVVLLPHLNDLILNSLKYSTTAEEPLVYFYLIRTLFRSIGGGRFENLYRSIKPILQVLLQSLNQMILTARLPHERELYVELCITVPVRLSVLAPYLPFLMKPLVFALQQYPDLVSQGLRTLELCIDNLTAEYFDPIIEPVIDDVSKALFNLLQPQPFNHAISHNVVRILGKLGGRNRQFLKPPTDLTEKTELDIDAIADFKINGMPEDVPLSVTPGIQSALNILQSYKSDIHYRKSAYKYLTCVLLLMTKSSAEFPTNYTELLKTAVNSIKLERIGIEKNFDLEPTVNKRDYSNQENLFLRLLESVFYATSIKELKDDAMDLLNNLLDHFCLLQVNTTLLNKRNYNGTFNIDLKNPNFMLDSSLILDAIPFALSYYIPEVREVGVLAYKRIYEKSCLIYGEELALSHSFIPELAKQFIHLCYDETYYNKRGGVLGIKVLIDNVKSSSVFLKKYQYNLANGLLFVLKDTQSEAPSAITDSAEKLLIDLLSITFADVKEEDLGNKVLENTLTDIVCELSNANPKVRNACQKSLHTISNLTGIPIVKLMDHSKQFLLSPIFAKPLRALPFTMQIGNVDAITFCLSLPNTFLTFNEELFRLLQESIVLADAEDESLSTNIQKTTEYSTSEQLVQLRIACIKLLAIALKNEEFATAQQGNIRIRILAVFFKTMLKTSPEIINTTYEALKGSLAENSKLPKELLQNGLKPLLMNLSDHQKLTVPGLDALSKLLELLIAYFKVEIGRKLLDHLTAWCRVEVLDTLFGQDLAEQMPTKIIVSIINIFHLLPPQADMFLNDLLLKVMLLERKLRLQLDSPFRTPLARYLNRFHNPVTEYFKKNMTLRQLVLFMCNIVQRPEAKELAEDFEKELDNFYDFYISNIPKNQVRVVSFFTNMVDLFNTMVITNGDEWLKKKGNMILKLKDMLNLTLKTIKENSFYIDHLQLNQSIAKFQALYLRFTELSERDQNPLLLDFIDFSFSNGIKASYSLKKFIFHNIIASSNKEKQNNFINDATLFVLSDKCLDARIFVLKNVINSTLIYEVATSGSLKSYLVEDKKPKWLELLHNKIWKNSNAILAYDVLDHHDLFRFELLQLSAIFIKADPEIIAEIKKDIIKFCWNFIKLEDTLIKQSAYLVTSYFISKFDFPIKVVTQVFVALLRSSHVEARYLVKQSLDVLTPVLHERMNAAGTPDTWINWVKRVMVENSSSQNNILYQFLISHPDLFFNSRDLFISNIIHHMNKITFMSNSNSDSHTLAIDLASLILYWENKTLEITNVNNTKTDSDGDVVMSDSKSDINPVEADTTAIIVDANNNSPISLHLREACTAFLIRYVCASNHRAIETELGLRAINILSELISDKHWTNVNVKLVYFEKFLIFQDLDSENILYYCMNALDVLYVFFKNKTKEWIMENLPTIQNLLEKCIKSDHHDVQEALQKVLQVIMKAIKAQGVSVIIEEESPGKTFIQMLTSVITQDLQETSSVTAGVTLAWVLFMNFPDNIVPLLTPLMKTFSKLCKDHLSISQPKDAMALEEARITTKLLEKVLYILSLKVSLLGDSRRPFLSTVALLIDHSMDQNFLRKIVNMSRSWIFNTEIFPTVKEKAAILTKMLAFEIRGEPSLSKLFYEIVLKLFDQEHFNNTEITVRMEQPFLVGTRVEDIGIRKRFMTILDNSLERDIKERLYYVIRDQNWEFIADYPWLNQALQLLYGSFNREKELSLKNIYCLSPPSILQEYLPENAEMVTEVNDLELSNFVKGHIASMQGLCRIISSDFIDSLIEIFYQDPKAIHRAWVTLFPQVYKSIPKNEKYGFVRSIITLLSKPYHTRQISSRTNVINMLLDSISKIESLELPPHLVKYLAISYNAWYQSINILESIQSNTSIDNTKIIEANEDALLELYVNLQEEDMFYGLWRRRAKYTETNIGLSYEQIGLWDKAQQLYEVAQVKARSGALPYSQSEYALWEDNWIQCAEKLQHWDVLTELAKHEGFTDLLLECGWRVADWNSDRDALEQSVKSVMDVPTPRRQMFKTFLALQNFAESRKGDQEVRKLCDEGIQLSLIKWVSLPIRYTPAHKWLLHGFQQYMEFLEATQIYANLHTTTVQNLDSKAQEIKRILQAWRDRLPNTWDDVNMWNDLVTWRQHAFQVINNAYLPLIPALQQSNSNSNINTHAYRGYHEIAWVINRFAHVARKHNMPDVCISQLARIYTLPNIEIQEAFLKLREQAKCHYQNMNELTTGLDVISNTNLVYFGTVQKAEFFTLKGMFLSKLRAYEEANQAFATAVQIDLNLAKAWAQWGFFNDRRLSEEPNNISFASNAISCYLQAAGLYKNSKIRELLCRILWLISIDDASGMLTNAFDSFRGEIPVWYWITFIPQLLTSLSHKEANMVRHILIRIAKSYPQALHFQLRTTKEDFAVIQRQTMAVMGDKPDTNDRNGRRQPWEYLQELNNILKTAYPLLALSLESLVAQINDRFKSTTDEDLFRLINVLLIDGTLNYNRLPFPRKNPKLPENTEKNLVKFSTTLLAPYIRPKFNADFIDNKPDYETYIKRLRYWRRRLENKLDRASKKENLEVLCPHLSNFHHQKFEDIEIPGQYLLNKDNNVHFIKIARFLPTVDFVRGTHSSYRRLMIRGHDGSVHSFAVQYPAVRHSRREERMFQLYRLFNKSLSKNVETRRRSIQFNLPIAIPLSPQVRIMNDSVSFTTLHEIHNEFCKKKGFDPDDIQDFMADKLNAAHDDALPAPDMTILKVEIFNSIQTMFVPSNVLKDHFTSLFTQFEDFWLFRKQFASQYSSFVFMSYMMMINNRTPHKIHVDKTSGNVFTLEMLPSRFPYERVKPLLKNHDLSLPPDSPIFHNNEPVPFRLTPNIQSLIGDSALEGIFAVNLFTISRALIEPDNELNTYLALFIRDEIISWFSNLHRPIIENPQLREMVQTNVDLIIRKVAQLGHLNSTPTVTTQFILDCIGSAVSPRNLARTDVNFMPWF

Sgf73 [3] = target: T2, Sgf73; assay: affinity purification with mass spectrometry
Taf5 [4] = target: B2; assay: affinity purification with mass spectrometry
Taf6 = target: B1; assay: cryo-EM structure

binding result (Spt7) | binding result (Sgf73 [1]) | binding result (Taf5 [2]) | Binder | also measured
binds | binds | binds | B1 | –
binds | – | binds | Taf10 (natural protein) MDFEEDYDAEFDDNQEGQLETPFPSVAGADDGDNDNDDSVAENMKKKQKREAVVDDGSENAFGIPEFTRKDKTLEEILEMMDSTPPIIPDAVIDYYLTKNGFNVADVRVKRLLALATQKFVSDIAKDAYEYSRIRSSVAVSNANNSQARARQLLQGQQQPGVQQISQQQHQQNEKTTASKVVLTVNDLSSAVAEYGLNIGRPDFYR | –
– | – | – | Spt20 (natural protein) MSANSPTGNDPHVFGIPVNATPSNMGSPGSPVNVPPPMNPAVANVNHPVMRTNSNSNANEGTRTLTREQIQQLQQRQRLLLQQRLLEQQRKQQALQNYEAQFYQMLMTLNKRPKRLYNFVEDADSILKKYEQYLHSFEFHIYENNYKICAPANSRLQQQQKQPELTSDGLILTKNNETLKEFLEYVARGRIPDAIMEVLRDCNIQFYEGNLILQVYDHTNTVDVTPKENKPNLNSSSSPSNNNSTQDNSKIQQPSEPNSGVANTGANTANKKASFKRPRVYRTLLKPNDLTTYYDMMSYADNARFSDSIYQQFESEILTLTKRNLSLSVPLNPYEHRDMLEETAFSEPHWDSEKKSFIHEHRAESTREGTKGVVGHIEERDEFPQHSSNYEQLMLIMNERTTTITNSTFAVSLTKNAMEIASSSSNGVRGASSSTSNSASNTRNNSLANGNQVALAAAAAAAAVGSTMGNDNNQFSRLKFIEQWRINKEKRKQQALSANINPTPFNARISMTAPLTPQQQLLQRQQQALEQQQNGGAMKNANKRSGNNATSNNNNNNNNLDKPKVKRPRKNAKKSESGTPAPKKKRMTKKKQSASSTPSSTTMS | binding result (Tra1): binds; binding result (Sgf73 [3]): binds; binding result (Taf5 [4]): binds
binds | – | – | B2 | –
– | binds | binds | Taf9 (natural protein) MNGGGKNVLNKNSVGSVSEVGPDSTQEETPRDVRLLHLLLASQSIHQYEDQVPLQLMDFAHRYTQGVLKDALVYNDYAGSGNSAGSGLGVEDIRLAIAARTQYQFKPTAPKELMLQLAAERNKKALPQVMGTWGVRLPPEKYCLTAKEWDLEDPKSM | binding result (Taf6): binds
